Measured values as given in publication PMC8469834.

How the values were obtained:
[1] = target: CzcR3, the response regulator of two-component system CzcRS3 (Pseudomonas putida KT2440) (UniProt F6KX51); experiment: electrophoresis analysis; purified His-tagged CzcR3 alone, in vitro; kind of gel and conditions not told in the text (Figure S1)
[2] = tested on: T1, CzcR3 (Pseudomonas putida KT2440), ORF:67c4da9b; experiment: EMSA; settings: 10 mM Tris-HCl pH 8.0, 50 mM KCl, 5 mM MgCl2, 5% glycerol, 28 °C 20 min; EMSA 10 nM FAM probe (carbamyl phosphate with CzcR3); footprinting 40 nM probe, about …
T1 sequence: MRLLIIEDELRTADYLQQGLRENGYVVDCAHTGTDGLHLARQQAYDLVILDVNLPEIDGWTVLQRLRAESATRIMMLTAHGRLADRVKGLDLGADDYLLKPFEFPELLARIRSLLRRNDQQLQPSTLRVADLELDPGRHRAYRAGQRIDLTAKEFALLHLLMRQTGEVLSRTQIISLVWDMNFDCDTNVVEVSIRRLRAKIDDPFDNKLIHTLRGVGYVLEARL

[3] = tested on: T1, CzcR3 (Pseudomonas putida KT2440), ORF:67c4da9b; experiment: DNase I footprinting; settings: 10 mM Tris-HCl pH 8.0, 50 mM KCl, 5 mM MgCl2, 5% glycerol, 28 °C 20 min; EMSA 10 nM FAM probe (carbamyl phosphate with CzcR3); footprinting 40 nM probe, about …
[4] = tested on: T2, CadR (Pseudomonas putida KT2440), ORF:5b9d404e; experiment: EMSA; settings: 10 mM Tris-HCl pH 8.0, 50 mM KCl, 5 mM MgCl2, 5% glycerol, 28 °C 20 min; EMSA 10 nM FAM probe (carbamyl phosphate with CzcR3); footprinting 40 nM probe, about …
T2 sequence: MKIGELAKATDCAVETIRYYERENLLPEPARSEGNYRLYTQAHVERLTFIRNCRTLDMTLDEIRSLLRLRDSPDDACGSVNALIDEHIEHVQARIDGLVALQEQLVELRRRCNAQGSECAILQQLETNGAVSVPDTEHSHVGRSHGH

[5] = tested on: T2, CadR (Pseudomonas putida KT2440), ORF:5b9d404e; experiment: DNase I footprinting; settings: 10 mM Tris-HCl pH 8.0, 50 mM KCl, 5 mM MgCl2, 5% glycerol, 28 °C 20 min; EMSA 10 nM FAM probe (carbamyl phosphate with CzcR3); footprinting 40 nM probe, about …

| stoichiometry N [1] | Substance | binding [2] | binding [3] | binding [4] | binding [5] |
| --- | --- | --- | --- | --- | --- |
| 2 | CzcR3, the response regulator of two-component system CzcRS3 (from UniProt F6KX51 1-224) (natural protein) |  |  |  |  |
|  | GATTATCGAACTTATTGGGCGTTGACTGTCCTGTACCCAGCCGTGCAAAGCTGCTTCTGCAACGAACCGCAGTGCGTCATTACAAAATTGTAATCTTGCCGCCACCGCCCCGATAACCAGCCCTTTCTACAGTCCCTGGCCAATGCT (double strand) [czcC2 (czcCBA2) promoter probe] | binds | binds |  |  |
|  | GTATCGAAATCATCGTGTCGGGTTGGGTTTCCCAGTATTTACGGGCATTACAAAGCTTTCTTACGAAATTGTAATTTTCTAGCCACCCCTCTGATAGCTACCGCTCATTAGAGTGCCATCACCTAATCAAGTGGGGCTTGGCAGCTGTTTCGGCGTTCTCGCCAAGCTTTATCGAAGTTTGTGCACGAGGACCATCAAAGTGCCCCGGTATAACCGCA (double strand) [czcC1 (czcCBA1) promoter probe] | binds | binds |  |  |
|  | TGTAAAACGACGGCCAGTTACAGGCGCGGGTTTACTCGCGAAGAGGCCCGAACAGACAGCCAGATAACAGCAGAATTACAAATCCGTTATCTGCACCGCAGGCCTTTTTTCATGCCGTAACATTGGGGCGCTTGACAAAGATGTCACTACAAAGTCAAGAATCGTCCCCTTTCAACATACCGAGCCCCCCATG (double strand) [czcRS3 (czcR3) promoter probe, mutated CadR site] |  |  | no binding |  |
|  | TGTAAAACGACGGCCAGTTACAGGCGCGGGTTTACTCGCGAAGAGGCCCGAACAGACAGCCAGATAACAGCAGAATTACAAATCCGTTATCTGCACCGCAGGCCTTTTTTCATGCCGTAACATTGGGGCGCTTGACCCTGATGTCACTACAGGGTCAAGAATCGTCCCCTTTCAACATACCGAGCCCCCCATG (double strand) [czcRS3 (czcR3) promoter probe, native] | binds | binds | binds | binds |
